For orientation: stoichiometry N means the number of molecules, sites or subunits per partner or assembly.

The record followed here is paper doi:10.1101/2022.05.04.490607 (bioRxiv, 2022).

Experiment [1] deals with HSP90 beta (full-length human, N-terminal HA tag) (human, UniProt P08238 1-724, phosphorylated (sites in Table S1)). In words: SEC-MALS. A general note: In gel filtration, larger molecules generally elute earlier.
Experiment [2] addresses T1, recombinant 14-3-3ζ, P63104.
T1 chain: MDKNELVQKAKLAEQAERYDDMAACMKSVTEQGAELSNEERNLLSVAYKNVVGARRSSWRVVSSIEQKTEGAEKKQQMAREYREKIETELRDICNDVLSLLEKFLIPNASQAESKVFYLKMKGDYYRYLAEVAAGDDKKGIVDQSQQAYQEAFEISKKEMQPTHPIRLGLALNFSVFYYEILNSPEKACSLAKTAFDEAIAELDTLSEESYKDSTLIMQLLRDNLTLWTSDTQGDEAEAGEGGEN
Description: cryo-EM structure. The following applies: remark: other sources report otherwise.

Sequence of HSP90 beta (full-length human, N-terminal HA tag) (P08238 whole entry): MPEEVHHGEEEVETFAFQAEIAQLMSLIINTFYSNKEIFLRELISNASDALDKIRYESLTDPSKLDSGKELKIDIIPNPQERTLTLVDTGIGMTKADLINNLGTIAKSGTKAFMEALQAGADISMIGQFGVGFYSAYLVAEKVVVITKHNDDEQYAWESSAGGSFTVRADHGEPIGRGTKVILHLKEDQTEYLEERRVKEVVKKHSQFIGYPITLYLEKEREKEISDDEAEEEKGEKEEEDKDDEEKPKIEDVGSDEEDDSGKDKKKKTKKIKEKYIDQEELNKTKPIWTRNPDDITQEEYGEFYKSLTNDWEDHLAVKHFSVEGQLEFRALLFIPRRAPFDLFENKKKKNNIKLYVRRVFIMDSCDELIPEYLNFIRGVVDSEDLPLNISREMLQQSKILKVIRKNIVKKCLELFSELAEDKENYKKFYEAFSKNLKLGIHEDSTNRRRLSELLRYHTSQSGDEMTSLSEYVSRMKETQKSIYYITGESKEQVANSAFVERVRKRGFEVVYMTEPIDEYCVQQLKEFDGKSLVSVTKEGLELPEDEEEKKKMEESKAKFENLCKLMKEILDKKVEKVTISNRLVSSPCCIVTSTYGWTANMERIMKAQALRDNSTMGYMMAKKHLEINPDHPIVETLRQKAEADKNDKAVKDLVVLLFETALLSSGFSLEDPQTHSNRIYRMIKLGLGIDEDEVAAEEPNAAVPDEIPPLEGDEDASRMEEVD

B1: CDC37 (full-length human, C-terminal Myc-DDK tag) (natural protein)
chain: MVDYSVWDHIEVSDDEDETHPNIDTASLFRWRHQARVERMEQFQKEKEELDRGCRECKRKVAECQRKLKELEVAEGGKAELERLQAEAQQLRKEERSWEQKLEEMRKKEKSMPWNVDTLSKDGFSKSMVNTKPEKTEEDSEEVREQKHKTFVEKYEKQIKHFGMLRRWDDSQKYLSDNVHLVCEETANYLVIWCIDLEVEEKCALMEQVAHQTIVMQFILELAKSLKVDPRACFRQFFTKIKTADRQYMEGFNDELEAFKERVRGRAKLRIEKAMKEYEEEERKKRLGPGGLDPVEVYESLPEELQKCFDVKDVQMLQDAISKMDPTDAKYHMQRCIDSGLWVPNSKASEAKEGEEAGPGDPLLEAVPKTGDEKDVSV
modifications: phosphoserine at S13 (seen in the cryo-EM map; further sites in Table S1)
As for B1, the binding result in experiment [1] is listed as “binds”.

B2: recombinant 14-3-3ζ, P63104 1-245 (natural protein)
chain: MDKNELVQKAKLAEQAERYDDMAACMKSVTEQGAELSNEERNLLSVAYKNVVGARRSSWRVVSSIEQKTEGAEKKQQMAREYREKIETELRDICNDVLSLLEKFLIPNASQAESKVFYLKMKGDYYRYLAEVAAGDDKKGIVDQSQQAYQEAFEISKKEMQPTHPIRLGLALNFSVFYYEILNSPEKACSLAKTAFDEAIAELDTLSEESYKDSTLIMQLLRDNLTLWTSDTQGDEAEAGEGGEN
Take B2: the stoichiometry N in experiment [2] worked out at 2.
